Measurements reported in patent publication US20070196374A1 (published 2007).
Numbering of substitutions follows the chain as printed. Names and notes keep the numbering of the source.

Key:
VEGF [1] = biological target: T1, VEGF (human, UniProt P15692-4 27-191, limits assumed); test: competition ELISA: Fab + biotinylated VEGF, then KDR-IgG plate
T1 construct: also called vascular endothelial growth factor; biotinylated VEGF
Method: Standards (6.9-440 ng/ml chimeric F(ab)) and two-fold serial of samples were incubated with 2 nM biotinylated VEGF for 1 h in tubes. The solutions from the tubes were then transferred to the ELISA plates and incubated for 1 h. […] Titration curves were fit with a four-parameter nonlinear regression curve-fitting program (KaleidaGraph, Synergy Software, Reading Pa.). […] Assays for full-length IgG were the same as for the F(ab)s except that the assay buffer contained 10% human serum.

VEGF [2] = biological target: T1, VEGF; test: BIAcore-2000 SPR, wt = Y0192
Method: (§1) The VEGF-binding affinities of Fab fragments were calculated from association and dissociation rate constants measured using a BIAcore-2000™ surface plasmon resonance system (BIAcore, Inc., Piscataway, N.J.). A biosensor chip was activated for covalent coupling of VEGF using N-ethyl-N′-(3-dimethylaminopropyl)-carbodiimide hydrochloride (EDC) and N-hydroxysuccinimide (NHS) according to the supplier's (BIAcore, Inc., Piscataway, N.J.) instructions. VEGF was buffered exchanged into 20 mM sodium acetate, pH 4.8 and diluted toapproximately 50 μg/mL. An aliquot (35 μL) was injected at a flow rate of 2 μL/min to achieve approximately 700-1400 response units (RU) of coupled protein. Finally, 1 M ethanolamine was injected as a blocking agent.
(§2) For kinetics measurements, two-fold serial dilutions of Fab were injected in PBS/TWEEN™ buffer (0.05% TWEEN 20™ in phosphate buffered saline) at 25° C. at a flow rate of 10 μL/min. […] Equilibrium dissociation constants, Kd's from surface plasmon resonance (SPR) measurements were calculated as koff/kon.

VEGF [3] = biological target: T1, VEGF; test: BIAcore-2000 SPR
Method: as §1, §2

rhVEGF165 = rhVEGF165 (human, UniProt P15692 27-191); test: cell-based or functional assay
VEGF121 [4] = biological target: T2, VEGF121 (human, UniProt P15692 27-147); test: BIAcore SPR, VEGF121 on chip
T2 construct: mature; also called Purified VEGF121
T2 sequence (looked up): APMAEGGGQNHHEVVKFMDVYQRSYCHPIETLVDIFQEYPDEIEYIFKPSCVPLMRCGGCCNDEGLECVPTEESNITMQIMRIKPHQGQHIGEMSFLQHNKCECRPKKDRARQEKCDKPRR
Method: (§3) VEGF₁₂₁ was covalently immobilized on the biosensor chip via primary amino groups. Binding of humanized A4.6.1 Fab variants was measured by flowing solutions of Fab in PBS/0.05% TWEEN 20™ over the chip at a flow rate of 20 μL/min. Following each binding measurement, residual Fab was stripped from the immobilized ligand by washing with 5 μL of 50 mM aqueous HCl at 3 μL/min. Binding profiles were analyzed by nonlinear regression using a simple monovalent binding model (BIAevaluation software v2.0; Pharmacia).

VEGF121 [5] = biological target: T2, VEGF121; test: BIAcore SPR, VEGF121 on chip, Fab in flow
Method: as §3

B1: F(ab)-1 (Fab, V domains shown)
VH: EVQLVESGGGLVQPGGSLRLSCAASGYTFTNYGMNWVRQAPGKGLEWVGWINTYTGEPTYAADFKRRFTISRDNSKNTLYLQMNSLRAEDTAVYYCARYPHYYGSSHWYFDVWGQGTLVTVSS
VL: DIQMTQSPSSLSASVGDRVTITCSASQDISNYLNWYQQKPGKAPKLLIYFTSSLHSGVPSRFSGSGSGTDFTLTISSLQPEDFATYYCQQYSTVPWTFGQGTKVEIK
fold reduction of binding affinity against chimeric F(ab) (VEGF [1]): > 1000 fold

B2: Y0238-1 (Fab, V domains shown)
VH: EVQLVESGGGLVQPGGSLRLSCAASGYTFTNYGINWVRQAPGKGLEWVGWINTYTGEPTYAADFKRRFTFSLDTSKSTAYLQMNSLRAEDTAVYYCAKYPYYRGTSHWYFDVWGQGTL
VL: DIQLTQSPSSLSASVGDRVTITCRANEQLSNYLNWYQQKPGKAPKVLIYFTSSLHSGVPSRFSGSGSGTDFTLTISSLQPEDFATYYCQQYSTVPWTFGQGTKVEIKR
notes: Clone of library YC-81 on the pY0192 template; Soluble Fab
Kd (wt)/Kd (VEGF [2]): 7.3 ratio

B3: Y0238-3 (Fab, V domains shown)
VH: B2 VH with R103Y
VL: B2 VL
notes: Soluble Fab from E. coli 34B8
Kd (VEGF [3]): 0.15 nM | Kd (wt)/Kd (VEGF [2]): ≥ 14 ratio

B4: Y0238-5 (Fab, V domains shown)
VH: B2 VH with R103I, G104A, T105K
VL: B2 VL
notes: as for B2
Kd (wt)/Kd (VEGF [2]): 3.2 ratio

B5: Y0238-7 (Fab, V domains shown)
VH: B2 VH with R103W
VL: B2 VL
notes: as for B2
Kd (wt)/Kd (VEGF [2]): ≥ 7.3 ratio

B6: Y0238-10 (Fab, V domains shown)
VH: B2 VH with G104N
VL: B2 VL
notes: as for B2
Kd (wt)/Kd (VEGF [2]): 4.8 ratio

B7: Y0243-1 (Fab, V domains shown)
VH: B2 VH with T28D, N31H, I34M, Y101H, R103Y, T105S
VL: B2 VL
notes: Soluble Fab from E. coli 34B8
Kd (wt)/Kd (VEGF [2]): 4.1 ratio

B8: Y0244-1 (Fab, V domains shown)
VH: B2 VH with L72V, T74V, Y101H, R103Y, T105S
VL: B2 VL
notes: Soluble Fab
Kd (wt)/Kd (VEGF [2]): 3.6 ratio

B9: Y0244-4 (Fab, V domains shown)
VH: B2 VH with L72I, T74K, Y101H, R103Y, T105S
VL: B2 VL
notes: Soluble Fab
Kd (wt)/Kd (VEGF [2]): 0.9 ratio

B10: Y0313-1 (Fab, V domains shown)
VH: B2 VH with T28D, N31H, I34M, R103Y
VL: B2 VL
notes: Y0243-1 with VH3 H101Y and S105T; soluble Fab
potency in the HuVEC assay relative to the wild-type Fab (Y0192) (rhVEGF165): > 30 fold | Kd (wt)/Kd (VEGF [2]): ≥ 20 ratio

B11: Y0313-3 (Fab, V domains shown)
VH: B2 VH with R103Y, T105S
VL: B2 VL
notes: Reversion mutant of Y0238-3 (VH3 T105S); soluble Fab
Kd (wt)/Kd (VEGF [2]): 4.5 ratio

B12: chimeric F(ab) (Fab, V domains shown)
VH: EIQLVQSGPELKQPGETVRISCKASGYTFTNYGMNWVKQAPGKGLKWMGWINTYTGEPTYAADFKRRFTFSLETSASTAYLQISNLKNDDTATYFCAKYPHYYGSSHWYFDVWGAGTTVTVSS
VL: DIQMTQTTSSLSASLGDRVIISCSASQDISNYLNWYQQKPDGTVKVLIYFTSSLHSGVPSRFSGSGSGTDYSLTISNLEPEDIATYYCQQYSTVPWTFGGGTKLEIKR
notes: Murine A4.6.1 VH fused to human CH1 at SerH113 and murine VL fused to human CL at LysL107; also called chim-F(ab); A4.6.1 chimera
EC50 (VEGF [1]): 49 µg/mL

B13: F(ab)-8 (Fab, V domains shown)
VH: B1 VH with I70F, R72L, N74T, L79A
VL: B1 VL with L46V
notes: F(ab)-5 with IleH69Phe and LeuH78Ala; Human CH1 and CL
fold improvement of binding against F(ab)-5 (VEGF [1]): 8 fold

B14: F(ab)-5 (Fab, V domains shown)
VH: B1 VH with R72L, N74T
VL: B1 VL with L46V
notes: Human CH1 and CL
fold increase of binding affinity against F(ab)-4 (VEGF [1]): ~4 fold

B15: F(ab)-6 (Fab, V domains shown)
VH: B1 VH with R72L, N74T, L79A
VL: B1 VL with L46V
notes: F(ab)-5 with LeuH78Ala; Human CH1 and CL
fold improvement of binding against F(ab)-5 (VEGF [1]): 2 fold

B16: F(ab)-7 (Fab, V domains shown)
VH: B1 VH with I70F, R72L, N74T
VL: B1 VL with L46V
notes: F(ab)-5 with IleH69Phe; Human CH1 and CL
fold improvement of binding against F(ab)-5 (VEGF [1]): 2 fold

B17: F(ab)-9 (Fab, V domains shown)
VH: B1 VH with G49A, I70F, R72L, N74T, L79A
VL: B1 VL with L46V
notes: F(ab)-8 with GlyH49Ala; Human CH1 and CL
fold reduction of binding against F(ab)-8 (VEGF [1]): 15 fold

B18: hu2.10 (Fab, V domains shown)
VH: B1 VH with V37I, R72L, N74T, K76A, N77S, L79V, R98K
VL: B1 VL with F71Y
notes: Phage-selected consensus clone, soluble Fab with human constant domains; also called consensus clone hu2.10
fold tighter KD against hu2.0 (VEGF121 [4]): ≥ 125 fold | KD(A4.6.1)/KD(mut) as headed (values run as KD(mut)/KD(A4.6.1)) (VEGF121 [5]): 35 ratio

B19: hu2.10V (Fab, V domains shown)
VH: B1 VH with V37I, R72L, N74T, K76A, N77S, L79V, R98K
VL: B1 VL with L46V, F71Y
notes: hu2.10 with the Leu->Val change at VL 46; Fab
fold improvement in KD against hu2.10 (VEGF121 [4]): 6 fold | KD(A4.6.1)/KD(mut) as headed (values run as KD(mut)/KD(A4.6.1)) (VEGF121 [5]): 5.8 ratio
